Residue numbers refer to the chain shown, from its start.
What was measured:
Assay in all cases: EMSA; up to 1:8 DNA:protein; AUC: 50 mM HEPES pH 7.4, 150 mM KCl, 1 mM EDTA, 20 C, DNA 0.5 uM in SV; EMSA: 10 mM Tris pH 8.0, 50 mM NaCl, 5% glycerol, 0.1% Triton X-100, 10 mM DTT, 1 mM EDT
Details in all cases: protein: recombinant; chain copies: 2; blunt
[1] = target: T1, KdpE DBD R200A (Escherichia coli str. K-12 substr. …, UniProt P21866 124-225, R200A)
T1 sequence: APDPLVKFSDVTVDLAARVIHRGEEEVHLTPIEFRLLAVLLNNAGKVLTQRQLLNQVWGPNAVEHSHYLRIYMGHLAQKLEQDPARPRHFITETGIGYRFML

[2] = target: T2, KdpE DBD R193A (Escherichia coli str. K-12 substr. …, UniProt P21866 124-225, R193A)
T2 sequence: T1 sequence with R70A, A77R

[3] = target: T3, KdpE DBD T215A (Escherichia coli str. K-12 substr. …, UniProt P21866 124-225, T215A)
T3 sequence: T1 sequence with A77R, T92A

Measured: binding result

B1: kdpFABCBS 30 bp (dsDNA)
DNA 1: CATTTTTATACTTTTTTTACACCCCGCCCG
DNA 2: CGGGCGGGGTGTAAAAAAAGTATAAAAATG
no binding: all assays above

Source: article PMC3264566, “Structure-Function Studies of DNA Binding Domain of Response Regulator KdpE Reveals Equal Affinity Interactions at DNA Half-Sites”
